From the DeepSol protein solubility set come the findings set out here.

The series can be described thus: soluble on expression in E. coli; label from the status in PepcDB or PDB records.
Turning to “GPGSMRKFCHFMANCWNSARSHATYGAVPLTHSQVTSVYATDGGKVDELGLLELVEERIFSWKLNKWEMRIPPNLPNDQKELIRQEQENLKQILSGWRKCFGALNADILQISSLTGVPKEVVREKNRTWLQEEVAKLRWMGEVNKAALLRDAFMRLEAFGSRDFMFMERLCCIYGLARQGTFDEAFTNYITEDPVTNDIFVDERNPFKELVAHIVRNYSQIDIIYDFLGFNYSEGYRSSLRRYMEYLQCKTAENVRASGRLVTGDKGEHNILFDYCVSRESLVSGDSCQGIIDFLYINGNDVTLIIIASDNPWLRNRQLPHRRQMEGIARRVCFVLGIPPSEVRIRNLLLPPTYLDKGSIVRLNDIVFRLSNEQSNLLIPWLTNYNKELDPKDVDYTALAKTTNEEEWLTL”, the “soluble on expression in E. coli” value was “not soluble”.
To “MRWVKAGELPMEAAYGATVSLPDRLIFIGGSNSSDRFSSVLSFSFDCMKDSGLICETLPPLPHAVDNMSATLLGDTLYVLGGNRNGIPSSSMFSLCLDNYSAGWTEVPFPGRPRVQPVCSSLLGKLYVFGGFTSGGDASVSTDGLCYHPESGQWQVVKAPLTTKGEPLTLTGGASVSYGDVLLICAGGVNRDIFEDAISARYQMVRESEYLLQPIEWYRFNDQLLAYNVRSGEWIRIGVPSPMLARAGSSLVVFGDILFYIGGELKPGVLEHHHHHH” belongs “not soluble”; to “MFSCISPQKSPAFSPEQEKMLKSNRANEPQSFVKGNDAAKSDLIDLEEVVTNWAKTMFDVTKSKAEGKIKKKYLSYNINWTKLFQECSEPTYTILGAKPNVVDAKQDEKVIFKTTFTNTTQREQEYSFKTERCTRSSSTVIIEKGVCRGAEVSLKLKTPCEVVEANAGFTTEVMLNHIGENTSEEELTWGVDSCVKVPPGAETVAELVIIEDIVTRDFRIENRLSGKVLVTITNLKENNSLVTIIEGNICDIIRGMPDYTAKGFRFDGPAAIYETRGQCIFRFGIEQKVRINEFSLNSSRRY”, “not soluble”; to “MSLRKNPYRLSDEIFGISFRTADRIAKSLGIDPYSKYRISSGIKYVLSRAATEGHTFLEEEMLKSYTSKLLDINIDSIEDALVSLVLNKSVYVDRNDGMSKIYLSSFYHAELGVCRKLVELSQVRYSADMEDFEERIKQVQKKEGIILADKQKEAIREAMTNGVLVITGGPGTGKTTIIKSIISLLESEGYEFALAAPTGRAAKRMSEATGYEAKTIHRLLEIGYTSNEDELVFMRTEDNPIEADVVIIDEMSMVDIILMYHLLKAIVCGTRLILVGDVDQLPSVGPGNVLRDIIKSGMIKTVKLSEIFRQAGESMIVVNAHRINRGEHPILNEREKDFFFVTRNSQNDILKTVVDLCTRRIPDTYGYDPMKQIQVLSPMRKGTVGVANLNIELQKVLNPEDGKEGHHHHHH”, “soluble”.
To “MGSDKIHHHHHHMADWTDNLPEAAQAYLENRRLDEVECIISDLPGIARGKAVPASKFARQDYFHLPDSIFYQTITGDWGDAAGEEGFIERDMILRPDYSTATAAPWTGDWTLQVIHDAYDRDGDPIPFSPRNVLRRVVSLYHAQGWKPVVAPEMEFFLVARNLDPAKEIEPMMGRSGRPAAARQAYSMTAVDEFGPVIDDIYDFAEAQGFEIDGITQEGGAGQLEINLRHGSPVRLADEVFYFKRLIREAALRHNCFATFMAKPIENEPGSAMHIHHSIVDMETGENIFSGPQGGETDAFYHFIAGLQNHLPSGLAVMAPYVNSYRRYVKDHAAPINLEWGRDNRTTGIRVPLSGPAARRIENRLAGMDCNPYLGIAVSLACGYLGLMEELRPRKQFKGDAYVGEGDIPQVMGDALDLFDEAKALHEVLGPEFARVYSIVKRAEYNEFLQVISPWEREHLLMNV” belongs “not soluble”; to “MITAIVFDVDDTIYDQQAPYRIAMEKCFPDFDMSVMNQAYIRFRHYSDVGFPRVMAGEWTTEYFRFWRCKETLLEFGYREIDEAAGVHFQEVYEHELENITMLDEMRMTLDFLKSKNVPMGIITNGPTEHQLKKVRKLGLYDYIDAKRVIVSQATGFQKPEKEIFNLAAEQFDMNPQTTLYVGDSYDNDIMGAFNGGWHSMWFNHRGRQLKPGTKPVYDVAIDNFEQLFGAVKVLFDLPDNKFIFDVNDKKNPILQMGINNGLMMAAERLLESNMSIDKVVILLRLTKQQEKVLRLKYAR”, “not soluble”; to “MNAADRVMQSYGRCCASTGFFDDFYRHFLASSPQIRAKFATTDMTAQKHLLRAGIMNLVMYARGMSDSKLRALGASHSRAALDIRPELYDLWLDALLMAVAEHDRDCDAETRDAWRDVMGRGIAVIKSYY”, “soluble”.
To “LITMNYNSPTIGMHQNLTIILPEDVTFFDSSTTAKHLKSMLLLHGLSSDETTYIRYTSIERYANEHQLAIIMPNVDHSGYANMVYGHSYYDYILEIYEYVHQILPLSRKREDNFIAGHSMGGYGTIKFALTQSDKFAKAAPLSAVFEAQRFIDLDWTDFSPQSITGNNTQIKGTELDTYYLLDQAIDANVDIPELFIMCGKEDFLYHDNLQFIETLNKKGVSYKFEDGPGNHDYAYWDRAIKRAIEWFVQ” belongs “not soluble”.
Take “MGLIPPKWLERMVEAYRDPSLERAVYGEVLTRSDIERLLSETPLHPMAAAADYYARVIKKGVGSYIVNIYLAYTNVCVTRCTFCDFYVPPERRSSGYTHPPEHLGRVAGLARKRLGVREVHMVGGNDPELPLEYYEEAIREIKRVAPGVVLKAFTAEEIGFIAKATGNTPKEVLARFREAGLDALPGGGAEVLSEEVRKRIAPLKISSDEYLEIHRLAHSMGIRSNITLLYAHIEEPRHVAEHLYRIRRLQEETGGFISFIPIRFNPGKTPLSRHPEYVKKGDRGGLYDLRIVAASRLALLGAIDNIMAYWVSMGEKLAQAALSHGANDIGGTFYNESVISAASSLRKRKGMSPARLVFNIATAGWTPMERDTFYNYYPPRAEPPRLPWMQG”: the “soluble on expression in E. coli” value was “not soluble”.
To “MSLENDSLEITYLGKRYKISLNNTFSDEMKRTLKERFHNQELNALELLKDYLHESCQNEYLHNELQKLLEKISSCSIT” belongs “not soluble”.
To “MAHHHHHHMNVVDFTWSRIRLFDHLAVILIYEELLKNPLCKITNVYESETRKYKPYPLNTLQMTKLVSIYFKISSKECMMLAEKLYNKGYISYPRTETNYFPDSMNLHKIINELRKNDNFGWYANKLCEEHKYQKPRKGKMNDKAHPPIHPVKNMNKSLKVEEKEWKLYEFICKHFLAVCSNDAIGYNTKVTAKIQEEQFFCKGLKIKEKNYLEIYTYEKWNDKIIPSFQVDDEFYPTSLLIEEGITQPPKYLSESNLLTLMDKFSIGTDATMHEHIENIQKRNYVIKNSKSLFIPTNLGIALVQSYKKFKDIGIDLTDPSLRAKMEKDMSLVASGVKQKNEIIRNYIDIMKYIYQEIYNRIDVLDKNIHYYLNNPDQLSYT” belongs “not soluble”.
For “MPRSDGFSPRKNLRRSARDHSRSYAGQCNEDFDDMYAPSSRRRSSGGVDGNGYTRSGRKINHNRYYEEEYHEAISSEEDERRYRTRRSSNSMTYRQQVMQAIDESKRNQKVPPAKRKRIYLSDEEEEDFAEAAHVENTVPERATRRSTRRRSSMHEELGVSEQEESPVRRTRKAAKRLGSEQPEENLAADDPLPMEGGGEIVLPIAEIDGMAEQENEDLIEKIGREEEEEGAEEDEQSGEKDPEEEEDDSSNAESSEESTAPRQYSLRRRQPVVQFNASEARENRRARLEHHRVANQNRHHRNRNGSRRRRSDSDSDSDDMVLPRPDKRQSRPHMHNRGERERGRFMPINMTEKELQSAQHILMDRMRKTDAGQGASDIDPMSVDSSVGFDQVGGLGHHIQSLKEVVLFPMLYPEVFEKFRINPPKGVVFYGPPGTGKTLVARALANECRRGANKVAFFMRKGADCLSKWVGESERQLRLLFDQAYAMRPSIIFFDEIDGLAPVRSSKQDQIHASIVSTLLALMDGLDGRGEVVVIGATNRLDTLDPALRRPGRFDRELRFSLPDLNARRQILDIHTSKWEENKPIPETLDAIAERTSGYCGADLKFLCTEAVLIGLRSRYPHIYMCSERLKLDVATIKITSEHFGHAMRRITPASRRDLTIPSRPLDERTSILLGDTVSNLISLRIPQGYRCVENAMATASSELEQVVRALEPNPTVPAIRLLLCGSEQLADGGQTSYVLPAILAKLDHLPVFSLSVSSLLTDGRPEEAFSNAIQSAMRASATGPCIMLLPSIDEWIKVIPVSVQHMLITCLESMTGFTPILFLSTLDTSFEDAPEYVTEIFRHANCITLNPSRRTIRQKYFEHVIEKINTPPKVFDPRLMRDRRFVEFVEPVDPDEAEDYYEIIETPICMQDIMEKLNNCEYNHADKFVADLILIQTNALEYNPSTTKDGKLIRQMANTLRDAIDDLIECELDESFVERIETVSRMLQDAGVTPTSDKLLTEIPKGFARKKAWSMTNSLAKEIEQWTSEREAENQKMLSKLGVAAPTLELVVVPVEDMKSEEGTSTSTDGVPASAGNKKKLLKKKKGQKKSKTGESEEHDEDSTVEDAGEDTIVENLEIKKNQETPNSEHDIEMKDASKDSTPSVQISIAEKELIVSKPATCELIQCCVEKSEGWSVSELERLSSVLSHTIERFRDEWNRENLPAQLTQIVREWQTADDSNNTIVNGTLNKSNGNLANGH”, the “soluble on expression in E. coli” value is recorded as “not soluble”.
The entry for “MKPILALLSLLALPVMAAEPTLYGRYENIKVLEIGQTFKAKMDTGALTASLSAKDIELFQRDGDDWVRFRLATKGADDKVYEHKVSRISKIKGRAEGDDEDDEGINPAKRPVVDLELCLGNKKRTVEVNLVDRSHFNFPLLIGAKALREFGAAINPARRYTADEPDC” is “not soluble”; for “MQKLTVGLIGNPNSGKTTLFNQLTGARQRVGNWAGVTVERKEGIFATTDHQVTLVDLPGTYSLTTISSQTSLDEQIACHYILSGDADMLINVVDASNLERNLYLTLQLLELGIPCVVALNMLDIAEKQQVRIDIDALAARLGCPVIPLVSTRGRGIEALKIALDRHQANSDLELVHYPQPLLREADLLAQQMSAQIPPRQRRWLGLQMLEGDIYSRAYAGDAADKLDIALANLSDEIDDPALHIADARYQTIAAICDAVSNTLTAEP” it is “soluble”.
The entry for “MGSDKIHHHHHHMRPETAIIEIHGQYRIHTEFYGNPAAQQTIILVNGSLSTTASFAQTVKYLQPHYNVVLYDQPYAGQSKPHNENHTPISKECEARILLELIERFRAEVVMSFSWGGVATLLALAQRPGRIRRAVVNSFSPQLNPAMLDYLHRGLDYLAACDRTQIGNLVNETIGRYLPQLFKRYNFRHVSSLDEHEYHQMHFHIREVLRLNADSYTESFAGIEIPMLFMNGELDIYTTPHEARQFGQLIRGAEFHTIRNAGHFIDVEHKAAWQQTQDALLAFLRPQRTQPLNPIYRPQPNGASVPLAALAS” is “not soluble”; for “QLVIERVSLPNPGKEKMTQALLTYVRRQGLSSLNWTPAAESLLERIRCAVDWLPEQAWPMFDEASLLDSLDEWLEPYMTSVA” it is “not soluble”.
As to “MPTSELTKERDLRDSKPIWADTPRTGIRSTHTPAANHYDTIVVGAGISGALVSHALHRPGQTMLIIDRREPVMGSSVASTAMIQHEIDTPLTELRKMIGKDAADRAWQRSARAVLRLEEIVSSLGISCSMKRKQALYLAGDEMGSRALKAEAAAREEAGIEARFLSTGELREQYGLDRTAAILSDISASANPAQLTAGLLRHTAAAGAEIVSKLEITDLRNLGDEVVLATADGKILSARSVVFCTGYEFLKMLESPKHQIISTWALASKKGLDLPDWLESHIVWEASDPYLYLRTDRDGRVIAGGEDEENPTAYQSERKLTAKAEAIRRKVEKLIGIDMGAPDYRWAAAFGTTTTGLPLIGAVPGMKNVYAVMGFGGNGITFSQIAAEIVAAAVNGGKDPDADLFRFGLEHHHHHH”, the “soluble on expression in E. coli” value is reported as “soluble”.
Consider “MSLDLQLYLSNLANQIDRETGIGDVPLVILLDDLSEAGSISELVNGALTCKYHKPYIIGTTNQPVKMTPNHGLHLSFRRMLTFSNNVEPANGFLVRYLRRKLVESDSDINANKEELLRVLDWVPKLWYHLHTFLEKHSTSDFLIGGPCFFLSCPIGIEDFRTWFIDLWNNSIIPYLQEGAKDGIKVHGQKAAWEDPVEWVRDTLPWPSAQQDDSTPSSLDSDPLMAMLLKLQEAANYIESPDRETILDPNLQATLEGHHHHHH”, for which the “soluble on expression in E. coli” value is reported as “soluble”.
